B1: TPR t1 (parent)
chain: GACCAAUCUGCCCUCAGAGCUCGAGAACAUCUUCGGAUGCAGAGGAGGCAGGCUUCGGUGGCGCGAUAGCGCCAACGUCCUCAACCUCCAAUGCAUCCCACCACAUGAUGAUGCCUGAAGAGCCUUGGUUUUUUG

Variants of: B1
Assay: polymerase ribozyme fitness, log enrichment relative to wild type (log ratio); higher = more active; in vitro selection for triplet polymerase activity
Outline: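 Frozen incubation at −7 °C formed the core of a single, triplicate in vitro selection round applied to PCR-built, transcribed mutant libraries of each subunit of a heterodimeric triplet polymerase ribozyme. Extended constructs were gel-excised, captured with streptavidin beads and amplified by RT-PCR, and input and output libraries were Illumina-sequenced with a filter of ≥10 input reads and ≥1 read per output. Fitness is the logarithm of genotype enrichment relative to wild-type enrichment, with inverse-variance-weighted replicate averaging, and the logarithm is base 2.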

Compared with C56U C115A U133C, C53U G63A C80A A105C G113U is lower in “polymerase ribozyme fitness (log ratio)” value: 1.27 for the first, -6.53 for the second.

First: U54A C70U G113U C114G A121C
Second: C56G U125A
The “polymerase ribozyme fitness (log ratio)” value of the first is lower: -2.74 for the first, -1.54 for the second.

Going from U54G C62U U81A to C56G A83C C101A C124G, the “polymerase ribozyme fitness (log ratio)” value rises from -1.77 to 0.428.

Going from C56U C73G U96A U106A to C56A U78C C98A G122A C123U U132A, the “polymerase ribozyme fitness (log ratio)” value falls from -3.7 to -5.25.

Going from C56G C114G to C53U G58U, the “polymerase ribozyme fitness (log ratio)” value rises from -3.74 to -0.0375.

Going from C56A U96G G113A to C56G U59G C97A, the “polymerase ribozyme fitness (log ratio)” value falls from -1.95 to -5.51.

First: C56U U59G A74G C102A G127U
Second: U55A C62U C85A A100U C102U
The “polymerase ribozyme fitness (log ratio)” value of the first is higher: -3.57 for the first, -5.11 for the second.

Compared with C56U C73A A100U, C56U C82U C86A U112G U129C is lower in “polymerase ribozyme fitness (log ratio)” value: -1.12 for the first, -1.4 for the second.

Compared with C53U C124A G128C, C56A U67A is lower in “polymerase ribozyme fitness (log ratio)” value: -0.772 for the first, -6.26 for the second.

U54G U132C and C56A G58C are within 0.2 log units of each other in “polymerase ribozyme fitness (log ratio)” value: -0.456 for the first, -0.496 for the second.

Going from C56A C88U A95C A108G to U55G C56A A83G, the “polymerase ribozyme fitness (log ratio)” value rises from -3.49 to -1.72.

Compared with C56A G128C, U55C C88U is higher in “polymerase ribozyme fitness (log ratio)” value: -2.8 for the first, -0.394 for the second.

Compared with C56U C80A C114U, U55A C73U A83G is higher in “polymerase ribozyme fitness (log ratio)” value: -4.51 for the first, -1.24 for the second.

First: C56U G57A C79G
Second: C56G U129C
The “polymerase ribozyme fitness (log ratio)” value of the first is lower: -1.48 for the first, -0.877 for the second.

Going from U55A U133A to C56G G58U U59C, the “polymerase ribozyme fitness (log ratio)” value rises from -0.185 to 1.36.

Going from U54A G60C G113C to U55G C82U A100U G113U, the “polymerase ribozyme fitness (log ratio)” value falls from -2.11 to -4.11.

Compared with U55C C72G C79U, U55G C88G is lower in “polymerase ribozyme fitness (log ratio)” value: 0.018 for the first, -0.483 for the second.

Going from C56A C79G C123G U133A to U54G C82A A91C C115G, the “polymerase ribozyme fitness (log ratio)” value falls from 1.29 to -4.39.

Going from U55C C123A to U54A C70G C86U, the “polymerase ribozyme fitness (log ratio)” value falls from -0.354 to -3.2.

Going from U54G G60U to U55C A91U C94A, the “polymerase ribozyme fitness (log ratio)” value rises from -3.4 to -2.3.

Compared with U55C C62U C89A U109A, C56G C102A is higher in “polymerase ribozyme fitness (log ratio)” value: -6.44 for the first, -1.59 for the second.

First: C53U U109G
Second: U54A C115U
The “polymerase ribozyme fitness (log ratio)” value of the first is lower: -4.32 for the first, -1.11 for the second.

First: U54A G61A C124A G128U
Second: C56A U59G A83G
The “polymerase ribozyme fitness (log ratio)” value of the first is higher: -0.356 for the first, -1.48 for the second.

First: C56U A90C G110A A111G U132A
Second: U54C A103G
The “polymerase ribozyme fitness (log ratio)” value of the first is higher: -0.678 for the first, -4.75 for the second.

Compared with U54C C73G A121U, C56G G57A G61C A118G is lower in “polymerase ribozyme fitness (log ratio)” value: 1.17 for the first, -4.8 for the second.

First: C53U G113C
Second: U54G C56U A121G C124A
The “polymerase ribozyme fitness (log ratio)” value of the first is higher: -1.77 for the first, -4.56 for the second.

Going from U54A C88G to C56G G69U U81A C88A A100U, the “polymerase ribozyme fitness (log ratio)” value falls from -1.9 to -2.69.

Going from C53U G60U C80U G93C C97U C101U U133A to C56U C114A G128A U133G, the “polymerase ribozyme fitness (log ratio)” value falls from -3.62 to -4.81.

First: C56G C72G C115A
Second: C56U A103U
The “polymerase ribozyme fitness (log ratio)” value of the first is higher: -2.98 for the first, -4.81 for the second.

First: C56U C88U
Second: C56A C73U C97U A103U G120C
The “polymerase ribozyme fitness (log ratio)” value of the first is higher: -0.153 for the first, -7.26 for the second.

Compared with C53U U78C, C53U U78G is higher in “polymerase ribozyme fitness (log ratio)” value: -0.767 for the first, -0.118 for the second.

First: C56G C73G
Second: U54C C79A C98U C101A
The “polymerase ribozyme fitness (log ratio)” value of the first is higher: -2.66 for the first, -5.66 for the second.

Going from C56G G58C to C56G U96G U125A, the “polymerase ribozyme fitness (log ratio)” value falls from 0.394 to -1.29.

First: C56A C79G G93A
Second: C56A G69A C101U G110A
The “polymerase ribozyme fitness (log ratio)” value of the first is higher: -2.59 for the first, -5.53 for the second.

First: C53U C79A C85U C88U
Second: C56A C114U C115U U131C
The “polymerase ribozyme fitness (log ratio)” value of the first is higher: -2.08 for the first, -5.83 for the second.

Compared with C56U G93A C97U U129A, C56A C88G A118U is higher in “polymerase ribozyme fitness (log ratio)” value: -2.25 for the first, -1.12 for the second.

Compared with C53U U59C U96A, U54G C79A is lower in “polymerase ribozyme fitness (log ratio)” value: -1.65 for the first, -2.11 for the second.

Compared with C53U C82A A121C, C56G G77C U130G is lower in “polymerase ribozyme fitness (log ratio)” value: 1.33 for the first, -0.115 for the second.

C56U C73U and C56A A83G A84C G135C are within 0.2 log units of each other in “polymerase ribozyme fitness (log ratio)” value: -0.755 for the first, -0.872 for the second.

First: C53U G61A C82A C86G U133A
Second: C56G C82U A91C U116C
The “polymerase ribozyme fitness (log ratio)” value of the first is higher: -1.32 for the first, -2.61 for the second.

Going from C56A C72U C82U C85U to C56U C82A G110C, the “polymerase ribozyme fitness (log ratio)” value falls from -1.52 to -4.8.

In the case of C53U U54G G117A, the “polymerase ribozyme fitness (log ratio)” value is reported as -0.796.

Reference: the RNAGym collection of RNA variant scans (doi:10.1073/pnas.2313332121)
